Measured values from patent publication US20120263732A1, “CD40 ANTIBODY FORMULATION AND METHODS” (PFIZER INC., priority 2003, published 2012).
Read-outs that look alike come from different tables or passages of the source.

Key:
[1] = cynomolgus monkey, in vivo
Procedure: The pharmacokinetic properties of an anti-CD40 antibody (21.4.1) were examined in cynomolgus monkeys following intravenous (IV) administration of a single dose of 1, 3, 5 or 10 mg/kg.

[2] = Serum pharmacokinetics after one injection in SCID-beige mice
B cell lymphoma Daudi = assay: Mortality in systemic Daudi B cell lymphoma model; assay type: in vivo, human tumor in SCID-beige mice; settings: Daudi IV; single IP injection; monitored for 58 days
Procedure: The ability of an anti-CD40 antibody according to the invention (21.4.1) to delay mortality in a CD40(+) systemic tumor model using a B cell lymphoma was assessed.
SCID-beige mice were injected IV with the B cell lymphoma Daudi (ATCC CCL-213). 21.4.1 was administered as a single injection (IP) at the time of tumor injection. Mortality was monitored for 58 days.

[3] = tested on: CD40 receptors on cynomolgus leukocytes; assay: 125I-21.4.1 binding to CD40 receptors on cynomolgus leukocytes; settings: 500-fold excess unlabeled 21.4.1; total % specific binding minus % binding to FcR
Procedure: (§1) The binding of 21.4.1 to Fc receptors (FcR) on human or cynomolgus peripheral blood leukocytes was determined by using ^125I-21.4.1 and a human IgG1 control mAb. Human leukocytes from normal donors or cynomolgus leukocytes were isolated from whole blood using plasma gel and washed thoroughly to allow dissociation of receptor-bound serum immunoglobulins. Centrifugation through a sucrose cushion was used to separate cell-bound and free antibodies. Studies were performed at 4° C. in the presence of sodium azide to prevent receptor internalization.
(§2) 21.4.1 was tested for specific binding to FcR by using excess unlabeled human IgG2 isotype matched antibody as a competitor. ^125I-21.4.1 specific binding to FcR on human leukocytes (n=5 donors) was −1.0±8.5%, and specific binding to FcR on cynomolgus leukocytes (n=4) was 15±13%. […] The specific binding of the IgG1 control antibody to FcR on human and cynomolgus leukocytes accounted for 56% and 51% of the total bound radioactivity, respectively.

[4] = tested on: CD40(−) erythroleukemic tumor, K562; assay: CD40(−) K562 erythroleukemic tumor growth in SCID-beige mice; assay type: in vivo, human tumor in SCID-beige mice
Procedure: The effects of a CD40 antibody (21.4.1) on the growth of CD40(−) tumors (e.g., erythroleukemia and colon carcinoma) were examined. In particular, K562 tumors were chosen to assess the efficacy of 21.4.1 against a CD40(−) low immunogenic (class I and II negative) tumor.
SCID-beige mice were injected SC with the CD40(−) erythroleukemic tumor, K562 (ATCC CCL-243) alone or in the presence of human peripheral blood T cells and DCs. Animals received a single IP injection of 21.4.1 either at the time of tumor injection or 5 days later using various dose levels.

[5] = molecular target: T1, CD40 receptors on human leukocytes (Homo sapiens, UniProt P25942); assay: 125I-21.4.1 binding to CD40 receptors on human leukocytes; settings: 500-fold excess unlabeled 21.4.1; total % specific binding minus % binding to FcR
T1 construct: Human leukocytes from normal donors or cynomolgus leukocytes were isolated from whole blood; endogenous in cells; host or cells: human peripheral blood leukocytes from normal donors
Procedure: as §1, §2

[6] = tested on: Fc receptors (FcR) on cynomolgus peripheral blood leukocytes; assay: 125I-antibody binding to Fc receptors on cynomolgus leukocytes; settings: 125I-labelled antibody; 4° C., sodium azide; 21.4.1: excess unlabeled human IgG2 competitor, n=4
Procedure: (§3) The binding of an anti-CD40 antibody (21.4.1) to Fc receptors on human and cynomolgus leukocytes was examined.
as §1, §2

[7] = Primate anti-human antibody (PAHA) response; assay type: in vivo, cynomolgus monkeys; settings: all monkeys in the 3, 5, and 10 mg/kg dose groups; 14 to 28 days following administration
Procedure: The observed dose-dependent clearance may be in part due to the binding of 21.4.1 to CD40 receptors that are widely expressed in normal tissues and the subsequent internalization and elimination of the antibody-receptor complex. Development of primate anti-human antibody (PAHA) response may also contribute to the accelerated clearance in some monkeys. PAHA was evaluated only after individual serum concentrations of 21.4.1 reached the lower limit of quantitation (LLOQ, 0.03 μg/mL) since the presence of 21.4.1 in test serum interferes with the assay for PAHA. Anti-21.4.1 antibodies were detected in all monkeys in the 3, 5, and 10 mg/kg dose groups at 14 to 28 days following administration of the antibody.

[8] = tested on: unstimulated human whole blood; assay: Whole-blood cytokine release assay
Procedure: An anti-CD40 antibody (21.4.1) was tested for its ability to induce the release of cytokines from unstimulated human whole blood using an in vitro whole blood assay which correlates with induction of antibody-mediated cytokine release in humans. 21.4.1 was tested at 1, 10 and 100 μg/mL, along with a murine anti-human CD3 IgG1 as a positive control that induces cytokine release through an Fc mediated pathway, and LPS as a second positive control that induces cytokines by stimulating macrophages. The donors used included individuals that responded to both the murine antibody and LPS (4 donors), as well as individuals who only responded to the LPS (3 donors). Heparinized whole blood was cultured with 21.4.1 for 5 hours and plasma was collected and analyzed for tumor necrosis factor alpha (TNF-α), interferon gamma (INF-γ) and interleukin-6 (IL-6) by ELISA (using commercially available kits). Cultures were also incubated for 48 hours and analyzed for interleukin-1 beta (IL-1β).

[9] = mouse, in vivo
breast tumor, BT 474 = assay: Established BT 474 breast tumors: antibody and/or cisplatin; assay type: in vivo, human tumor in SCID-beige mice; settings: single IP injection once tumors reached 200 mm^2; antibody 1 mg/kg, cisplatin 2.5 mg/kg; Day 84
Procedure: The therapeutic effects of an anti-CD40 antibody (21.4.1) in preventing the growth of human breast tumors alone and in the presence of cisplatin was examined.
SCID-beige mice were injected SC with the breast tumor, BT 474. The antibody (1 mg/kg, IP) and/or cisplatin (2.5 mg/kg, IP) were administered as a single injection once tumors reached a size of 200 mm^2. Tumor growth was measured on Day 84 after challenge.

[10] = tested on: Fc receptors (FcR) on human peripheral blood leukocytes; assay: 125I-antibody binding to Fc receptors on human leukocytes; settings: 125I-labelled antibody; 4° C., sodium azide; 21.4.1: excess unlabeled human IgG2 competitor, n=5 donors
Procedure: as §3, §1, §2

T1 sequence (P25942 21-277): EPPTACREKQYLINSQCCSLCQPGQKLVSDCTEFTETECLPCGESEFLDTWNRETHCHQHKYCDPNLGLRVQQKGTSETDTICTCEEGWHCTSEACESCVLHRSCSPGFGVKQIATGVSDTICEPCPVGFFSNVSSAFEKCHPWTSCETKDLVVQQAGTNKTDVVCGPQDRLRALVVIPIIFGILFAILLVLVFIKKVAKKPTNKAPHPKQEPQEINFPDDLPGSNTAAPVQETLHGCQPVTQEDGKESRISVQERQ

21.4.1: human agonist anti-CD40 antibody; amino acid sequences SEQ ID NOs:5-8; hybridoma deposit PTA-3605
duration of exposure of ≧0.1 μg/mL [1]: 4 days | volume of distribution at steady state, mean of different doses ([1]; iv): 0.0575 L/kg | AUC(0-∞) ([1]; iv, 1 mg/kg): 298 µg·h/mL | CL ([1]; iv, 1 mg/kg): 3.81 mL/h/kg | Cmax ([1]; iv, 1 mg/kg): ~20000 ng/mL | Vdss ([1]; iv, 1 mg/kg): 0.0757 L/kg | t1/2 ([1]; iv, 1 mg/kg): 18 h | AUC(0-∞) ([1]; iv, 3 mg/kg): 2460 µg·h/mL | CL ([1]; iv, 3 mg/kg): 1.28 mL/h/kg | Vdss ([1]; iv, 3 mg/kg): 0.0459 L/kg | t1/2 ([1]; iv, 3 mg/kg): 33.6 h | AUC(0-∞) ([1]; iv, 5 mg/kg): 4790 µg·h/mL | CL ([1]; iv, 5 mg/kg): 1.04 mL/h/kg | Vdss ([1]; iv, 5 mg/kg): 0.0488 L/kg | t1/2 ([1]; iv, 5 mg/kg): 33.6 h | AUC(0-∞) ([1]; iv, 10 mg/kg): 12500 µg·h/mL | CL ([1]; iv, 10 mg/kg): 0.798 mL/h/kg | Vdss ([1]; iv, 10 mg/kg): 0.0529 L/kg | apparent mean elimination half-life, range over doses ([1]; iv, 10 mg/kg): 18 to 48 h | systemic clearance, range over doses ([1]; iv, 10 mg/kg): 0.798 to 3.81 mL/h/kg | t1/2 ([1]; iv, 10 mg/kg): 48 h | volume of distribution at steady state, range over doses ([1]; iv, 10 mg/kg): 0.0459 to 0.0757 L/kg | Cmax serum concentration ([2]; corresponding to 0.001 mg/kg single IP): 10 ng/mL | Cmax serum concentration ([2]; corresponding to 0.005 mg/kg single IP): 50 ng/mL | Cmax serum concentration ([2]; corresponding to 0.02 mg/kg single IP): 200 ng/mL | mortality induced by systemically administered tumor cell line (B cell lymphoma Daudi): prevented mortality | specific binding to CD40 receptors on cynomolgus leukocytes [3]: 67% | amount to cause a 50% inhibition of tumor growth (IC50) ([4]; K562 with human T cells and DC, single IP injection, Day 21): 0.005 mg/kg | growth of K562 tumor ([4]; in the absence of immune cells): not inhibited | specific binding to CD40 receptors on human leukocytes [5]: 49% | specific binding to FcR on cynomolgus leukocytes [6]: 15±13% | anti-21.4.1 antibodies (PAHA) [7]: detected | IL-6 in plasma ([8]; 100 μg/mL, only one donor, 5 hours): 90 pg/mL | cytokines in plasma of human blood ([8]; 1 or 10 μg/mL 21.4.1, ELISA): not detected | elevation of INFγ or IL-1β ([8]; any of the samples, 1, 10 and 100 μg/mL): no elevation | induction of TNF-α or IL-6 on re-test ([8]; same donor re-tested subsequently): no detectable induction | T1/2 [9]: > 720 h | tumor growth, single agent (breast tumor, BT 474): prevented tumor growth | specific binding to FcR on human leukocytes [10]: −1.0±8.5%
